As usually defined, the Kd is the free concentration of one partner at which half of the binding sites on the other are occupied at equilibrium, for simple one-to-one binding.

The source of these data is patent US20250145729A1 (DENALI THERAPEUTICS, published 2025).

Sequences and labels used below:
B1: 42.8.152 (Fc fusion)
chain: APEAAGGPSVFLFPPKPKDTLMISRTPEVTCVVVDVSHEDPEVKFNWYVDGVEVHNAKTKPREEQYNSTYRVVSVLTVLHQDWLNGKEYKCKVSNKALGAPIEKTISKAKGQPREPQVYTLPPSRDELTKNQVSLTCLVKGFYPSDIAVEWFYDGSKETNYKTTPPVLDSDGSFFLYSKLTVDKSRWQQGNLFACEVMHEALHNHYTYKLLSLSPGK
notes: bivalent; P329G+LALA
B2: 42.8.167 (Fc fusion)
chain: B1 chain with G155A, E158L
notes: bivalent; P329G+LALA
B3: 42.8.173 (Fc fusion)
chain: B1 chain with G155D, S156Q, E158L
notes: bivalent; P329G+LALA
B4: 42.8.163 (Fc fusion)
chain: B1 chain with G155A, T159N
notes: bivalent; P329G+LALA
B5: 42.8.153 (Fc fusion)
chain: B1 chain with T159S
notes: bivalent; P329G+LALA
B6: 42.8.182 (Fc fusion)
chain: B1 chain with D154E, S156Q
notes: bivalent; P329G+LALA
B7: 42.8.156 (Fc fusion)
chain: B1 chain with E158L, T159S
notes: bivalent; P329G+LALA
B8: 42.8.175 (Fc fusion)
chain: B1 chain with G155D, T159N
notes: bivalent; P329G+LALA
B9: 42.8.181 (Fc fusion)
chain: B1 chain with D154E, S156Q, T159N
notes: bivalent; P329G+LALA
B10: 42.8.183 (Fc fusion)
chain: B1 chain with D154E, S156Q, T159S
notes: bivalent; P329G+LALA
B11: 42.8.162 (Fc fusion)
chain: B1 chain with G155A, S156Q, E158L, T159S
notes: bivalent; P329G+LALA
B12: 42.8.159 (Fc fusion)
chain: B1 chain with G155A, S156Q, T159S
notes: bivalent; P329G+LALA
B13: 42.8.157 (Fc fusion)
chain: B1 chain with G155A, S156Q, T159N
notes: bivalent; P329G+LALA
B14: 42.8.174 (Fc fusion)
chain: B1 chain with G155D, S156Q, E158L, T159S
notes: bivalent; P329G+LALA
B15: 42.8.168 (Fc fusion)
chain: B1 chain with G155A, E158L, T159S
notes: bivalent; P329G+LALA
B16: 42.8.185 (Fc fusion)
chain: B1 chain with D154E, S156Q, E158L
notes: bivalent; P329G+LALA
B17: 42.8.166 (Fc fusion)
chain: B1 chain with G155A, E158L, T159N
notes: bivalent; P329G+LALA
B18: 42.8.184 (Fc fusion)
chain: B1 chain with D154E, S156Q, E158L, T159N
notes: bivalent; P329G+LALA

Positions count from the first letter of the chain named. In names and notes the source's numbering stands.

One test addresses T1, circularly permuted cyno TfR apical domain (cynomolgus monkey).
T1 construct: same design as the human construct; also called cyTfR Apical Domain; cynomolgus TfR apical domain
T1 chain: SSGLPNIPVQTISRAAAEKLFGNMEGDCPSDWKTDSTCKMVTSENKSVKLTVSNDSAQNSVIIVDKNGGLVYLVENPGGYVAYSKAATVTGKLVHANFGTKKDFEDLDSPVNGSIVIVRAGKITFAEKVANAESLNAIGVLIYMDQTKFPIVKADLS
Description: SPR, supernatant, anti-Fab capture. The procedure: (§1) Clones were expressed in HEK293 cells. Supernatants were captured for SPR by GE Healthcare anti-human Fab capture kit and the affinity to human and cyno TfR apical domain was measured (Table 30). The clones in Table 30 were bivalent and each TfR-binding Fc polypeptide also contained P329G and LALA mutations.
In turn, B1 had a Kd of 10.9 µM.

Consider B2, for which binding was characterised by a dissociation constant (Kd) of 6.59 µM. Compared with the last molecule, the Kd is about 1.7-fold lower.

Molecule B3 showed a Kd of 6.72 µM.

With B4, binding was put at a Kd of 7.82 µM.

Take B5: the Kd amounted to 14.5 µM.

Turning to B6, the Kd worked out at 14.4 µM.

The molecule B7 gave a Kd of 13.3 µM. The Kd values of the last two molecules are within 1.5-fold of each other.

Take B8: binding was characterised by a dissociation constant (Kd) of 15.8 µM.

B9: the affinity, expressed as Kd, was 12.1 µM. The Kd values of the last two molecules are within 1.5-fold of each other.

B10 gave a Kd of 15.1 µM.

The molecule B11 registered a dissociation constant (Kd) of 23.2 µM.

Consider B12, for which the Kd was determined as 10.8 µM.

B13 had a Kd of 15.5 µM.

Molecule B14 registered a dissociation constant Kd of 7.78 µM.

Turning to B15, the Kd is 5.7 µM. The Kd values of the last two molecules are within 1.5-fold of each other.

B16 showed a dissociation constant (Kd) of 13.3 µM.

Molecule B17 showed an equilibrium dissociation constant (Kd) of 5 µM.

With B18, the Kd was 17 µM.

The target in another test is T2, circularly permuted human TfR apical domain (human).
T2 construct: TfR residues 326-379 stand N-terminal to 194-296, loop 297-325 deleted; also called huTfR Apical Domain
T2 chain: T1 chain with K39R, N45S, S47N, G69R, D108Y, S109T, K153N, D155E
Description: SPR, supernatant, anti-Fab capture. The procedure: as §1
(Surface plasmon resonance follows binding to a sensor surface in real time, without labels.)
B1: the Kd was 1.02 µM.

The molecule B2 gave a Kd of 0.502 µM.

As for B3, the Kd was determined as 0.603 µM.

For B4, the Kd was 1.38 µM. This Kd is about 2.3-fold higher than that of the molecule before.

With B5, the dissociation constant Kd worked out at 1.84 µM.

For the molecule B6, the Kd turned out to be 2.29 µM.

In turn, B7 returned an equilibrium dissociation constant (Kd) of 1.39 µM.

On to B8, for which binding was characterised by a dissociation constant (Kd) of 1.05 µM.

Regarding B9, the affinity, expressed as Kd, was 2.78 µM. Compared with the last molecule, the Kd is about 2.6-fold higher.

In turn, B10 registered a Kd of 2.33 µM.

B11 displayed a Kd of 1.19 µM.

In turn, B12 gave a Kd of 1.32 µM. This Kd and that of the molecule before are within 1.5-fold of each other.

B13 came in with a dissociation constant (Kd) of 2.1 µM.

For the molecule B14, the equilibrium dissociation constant (Kd) amounted to 0.726 µM.

B15 yielded a Kd of 0.531 µM.

In turn, B16 had a Kd of 1.85 µM.

Molecule B17 came in with an equilibrium dissociation constant (Kd) of 0.855 µM.

Regarding B18, binding was characterised by a dissociation constant (Kd) of 1.68 µM. This Kd is about 2-fold higher than that of the molecule before.
